Target: p53 wild-type (Homo sapiens, UniProt P04637 SEQ:1-393)
Assay: EMSA; binds quite efficiently; PAb421 stimulation +
Conditions: chain copies: 4 inferred; label: 32P
Protocol: Briefly the in vitro translated protein is incubated with a radioactively labeled oligonucleotide containing a p53 binding site in the presence of non-specific competitor DNA. The reaction mixture is incubated 20 min. at room temperature and directly loaded on a native 5% polyacrylamide electrophoresis gel. In this type of DNA binding assay free DNA migrates to the bottom of the gel, whereas p53/DNA complexes migrate more slowly.

Chain of p53 wild-type (P04637 whole entry): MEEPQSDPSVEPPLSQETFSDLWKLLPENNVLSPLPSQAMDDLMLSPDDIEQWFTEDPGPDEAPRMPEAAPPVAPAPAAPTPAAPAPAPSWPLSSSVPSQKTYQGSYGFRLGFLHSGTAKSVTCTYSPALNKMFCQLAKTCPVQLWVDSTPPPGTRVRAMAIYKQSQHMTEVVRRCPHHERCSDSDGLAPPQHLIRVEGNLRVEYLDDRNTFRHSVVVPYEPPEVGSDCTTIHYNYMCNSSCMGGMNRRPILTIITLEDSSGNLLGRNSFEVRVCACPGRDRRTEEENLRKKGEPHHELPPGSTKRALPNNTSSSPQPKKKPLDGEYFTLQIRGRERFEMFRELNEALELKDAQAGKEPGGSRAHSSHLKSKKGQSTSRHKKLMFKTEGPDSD

B1: BC (dsDNA)
DNA 1: CCGGGCATGTCCGGGCATGTCCGGGCATGT
DNA 2: ACATGCCCGGACATGCCCGGACATGCCCGG
B1: binds.

— patent US20030171537, “Peptides and peptidomimetics with structural similarity to human p53 that activate p53 function” (published 2003)
